Data published in US20100159468A1.

Molecular target: Arf1-V5 (human) (UniProt P84077)
Assay: cell-based or functional assay

Chain of Arf1-V5 (human) (P84077 2-181): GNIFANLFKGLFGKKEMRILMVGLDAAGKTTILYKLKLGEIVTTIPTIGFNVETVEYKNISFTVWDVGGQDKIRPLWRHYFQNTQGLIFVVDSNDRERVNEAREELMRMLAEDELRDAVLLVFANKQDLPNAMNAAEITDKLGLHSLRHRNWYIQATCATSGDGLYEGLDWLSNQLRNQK

Arf1-GTP level (GST-GGA3 pulldown, Western blot band intensity) in BFA-treated Vero cells expressing GBF1-M832L: 45 % of control | Arf1-GTP level (GST-GGA3 pulldown, Western blot band intensity) in GCA-treated Vero cells expressing GBF1-M832L: 86 % of control
Substance: GBF1-M832L-HA (hamster GBF1 with M830L, M832L relative to human GBF1, HA-tagged) (from UniProt Q9R1D7 1-1856)
